{"source": "paper PMC9205905", "about": "“Core and rod structures of a thermophilic cyanobacterial light-harvesting phycobilisome” (Nature Communications, 2022)", "biological_target": "the molecule itself", "experiment": "cryo-EM structure; PC rods dissociated from intact PBSs on the grid by dilution with 10 mM phosphate buffer (phosphate below 0.5 M); single-particle cryo-EM, no symmetry, 4.2 Å", "data": [{"protein": "PC monomer (CpcA/CpcB αβ monomer) (complex, phycocyanobilin (PCB) at residue 84 (α84) | phycocyanobilin (PCB) at residues 84 and 155 (β84, β155)) chain 1: not shown chain 2: MLDAFAKVVAQADARGEFLTNAQFDALSNLVKEGNKRLDAVNRITSNASTIVANAARALFAEQPQLIQPGGNAYTNRRMAACLRDMEIILRYVTYAILAGDSSVLDDRCLNGLRETYQALGTPGSSVAVAIQKMKDAAIAIANDPNGITPGDCSALMSEIAGYFDRAAAAVA", "values": [{"measurement": "stoichiometry N", "result": 6}]}]}
